Read-outs that look alike come from different tables or passages of the source.

The term EC50 denotes the midpoint of the concentration-response curve. Low values mean an effect from little substance, high ones a need for much substance.

In assay [1] the target is T1, Claudin 18.2 (CLDN18.2), expressed on CHOS-CLDN 18.2 / HEK293-CLDN 18.2 / HCC827-CLDN 18.2 cells (human, UniProt P56856-2 1-261).
T1 construct: whole, on cells; The species is not repeated for the CHOS-CLDN 18.2 cells; also called claudin-18A2
Kind of assay: FACS, CHOS-CLDN18.2 cells, 0.313 µg/ml. A general note: In flow cytometry, cells or beads pass a laser one at a time.
Description: (§1) The initial concentration of the antibody was 20 μg/ml, it was diluted at 1:4, and incubated at 4° C. for 60 min.

Assay [2] concerns the target T1, Claudin 18.2 (CLDN18.2), expressed on …. The assay is described as follows: FACS, CHOS-CLDN18.2 cells, 0.313 µg/ml. This is another data set of the same source.
Description: as §1
Assay [3] shares this target. The assay is described as follows: FACS, CHOS-CLDN18.2 cells, 0.078 µg/ml.
Description: as §1
Assay [4] has the same target. The assay is described as follows: FACS, CHOS-CLDN18.2 cells.
Description: as §1
For assay [5] the target is unchanged. The assay is described as follows: FACS, CHOS-CLDN18.2 cells, 0.020 µg/ml.
Description: as §1
Assay [6] has the same target. Kind of assay: FACS, CHOS-CLDN18.2 cells, 0.313 µg/ml. The source holds these as a separate data set.
Description: as §1
Assay [7] has the same target. The assay is described as follows: FACS, CHOS-CLDN18.2 cells. This is another data set of the same source.
Description: as §1
Assay [8] shares this target. Kind of assay: FACS, CHOS-CLDN18.2 cells, 0.005 µg/ml.
Description: as §1
For assay [9] the target is unchanged. Kind of assay: FACS, CHOS-CLDN18.2 cells, 0.005 µg/ml. This is another data set of the same source.
Description: as §1
Assay [10] has the same target. Kind of assay: FACS, CHOS-CLDN18.2 cells, 5 µg/ml.
Description: as §1
For assay [11] the target is unchanged. Kind of assay: FACS, CHOS-CLDN18.2 cells, 0.005 µg/ml. This is another data set of the same source.
Description: as §1
The target is the same in assay [12]. Kind of assay: FACS, CHOS-CLDN18.2 cells, 5 µg/ml. This is another data set of the same source.
Description: as §1
Assay [13] shares this target. The assay is described as follows: FACS, CHOS-CLDN18.2 cells, 0.005 µg/ml. The source holds these as a separate data set.
Description: as §1
The target is the same in assay [14]. The assay is described as follows: FACS, CHOS-CLDN18.2 cells, 0.078 µg/ml. The source holds these as a separate data set.
Description: as §1
For assay [15] the target is unchanged. Kind of assay: FACS, CHOS-CLDN18.2 cells, 0.005 µg/ml. This is another data set of the same source.
Description: as §1
For assay [16] the target is unchanged. Kind of assay: FACS, CHOS-CLDN18.2 cells, 1.250 µg/ml.
Description: as §1
Assay [17] shares this target. Kind of assay: FACS, CHOS-CLDN18.2 cells, 1.250 µg/ml. The source holds these as a separate data set.
Description: as §1
For assay [18] the target is unchanged. Kind of assay: FACS, CHOS-CLDN18.2 cells. This is another data set of the same source.
Description: as §1

B1: QP024025 (antibody, human IgG1, V domains shown)
VH: QVQLQQPGAELVRPGASVKLSCKASGYTFTSYWINWVKQRPGQGLEWIGNIYPSDSYTNYNQKFKDKATLTVDKSSSTAYMQLSSPTSEDSAVYYCTRSWRGNSFDYWGQGTTLTVSS
VL: DIVMTQSPSSLTVTAGEKVTMSCKSSQSLLNSGNQKNYLTWYQQKPGQPPKLLIYWASTRESGVPDRFTGSGSGTDFTLTISSVQAEDLAVYYCQNDYSYPFTFGSGTKLEIK
notes: also called IMAB362; 175D10(IMAB362)
B1: the FACS reading turned out to be 51000 in assay [1]; 51000 in assay [2]; 18200 in assay [3]; 6950 in assay [5]; 51000 in assay [6]; 2830 in assay [8]. In addition, the FACS reading is 2830 in assay [9]; 105000 in assay [10]; 2830 in assay [11]; 105000 in assay [12]; 2830 in assay [13]; 18200 in [14]. Further, the FACS reading was 2830 in [15], 63700 in assay [16] and 63700 in assay [17]. In addition, the EC50 in assay [4], in assay [7] and in assay [18] was 0.27 µg/mL each time. Further, the max in assay [4], in assay [7] and in [18] was 88600 throughout.
